In patent US20100093563A1 (published 2010):

Target: T1, ovalbumin (UniProt P01012 2-386)
T1 sequence: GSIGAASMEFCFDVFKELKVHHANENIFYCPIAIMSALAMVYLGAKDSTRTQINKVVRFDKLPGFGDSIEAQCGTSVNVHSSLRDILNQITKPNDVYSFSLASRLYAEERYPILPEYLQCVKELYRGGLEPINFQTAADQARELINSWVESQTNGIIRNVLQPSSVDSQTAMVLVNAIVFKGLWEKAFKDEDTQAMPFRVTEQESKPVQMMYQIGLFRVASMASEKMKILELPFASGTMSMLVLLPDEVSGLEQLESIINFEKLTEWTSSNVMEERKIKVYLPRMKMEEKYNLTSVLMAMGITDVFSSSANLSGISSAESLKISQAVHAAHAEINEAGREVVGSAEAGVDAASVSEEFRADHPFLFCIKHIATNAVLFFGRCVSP
Experiment: phage ELISA, ovalbumin coated 100 ng per well, anti-HA or anti-M13 detection

B1: 2G12 domain exchanged Fab fragment displayed on phage (Fab, V domains shown)
VH: EVQLVESGGGLVKAGGSLILSCGVSNFRISAHTMNWVRRVPGGGLEWVASISTSSTYRDYADAVKGRFTVSRDDLEDFVYLQMHKMRVEDTAIYYCARKGSDRLSDNDPFDAWGPGTVVTVSP
VL: GVVMTQSPSTLSASVGDTITITCRASQSIETWLAWYQQKPGKAPKLLIYKASTLKTGVPSRFSGSGSGTEFTLTISGLQFDDFATYHCQHYAGYSATFGQGTRVEIKR
notes: also called 2G12 Fab; phage from 2G12 pCAL G13 vector
binding result: no binding
